From patent publication US20240018242

What was measured:
[1] = molecular target: FH-AGO2 (Flag-HA-tagged wild type AGO2 expressed in MCF-7 cells) (UniProt Q9UKV8)
[2] = molecular target: FH-AGO2-K726R (UniProt Q9UKV8)
FH-AGO2-K726R, sequence (Q9UKV8 whole entry K726R): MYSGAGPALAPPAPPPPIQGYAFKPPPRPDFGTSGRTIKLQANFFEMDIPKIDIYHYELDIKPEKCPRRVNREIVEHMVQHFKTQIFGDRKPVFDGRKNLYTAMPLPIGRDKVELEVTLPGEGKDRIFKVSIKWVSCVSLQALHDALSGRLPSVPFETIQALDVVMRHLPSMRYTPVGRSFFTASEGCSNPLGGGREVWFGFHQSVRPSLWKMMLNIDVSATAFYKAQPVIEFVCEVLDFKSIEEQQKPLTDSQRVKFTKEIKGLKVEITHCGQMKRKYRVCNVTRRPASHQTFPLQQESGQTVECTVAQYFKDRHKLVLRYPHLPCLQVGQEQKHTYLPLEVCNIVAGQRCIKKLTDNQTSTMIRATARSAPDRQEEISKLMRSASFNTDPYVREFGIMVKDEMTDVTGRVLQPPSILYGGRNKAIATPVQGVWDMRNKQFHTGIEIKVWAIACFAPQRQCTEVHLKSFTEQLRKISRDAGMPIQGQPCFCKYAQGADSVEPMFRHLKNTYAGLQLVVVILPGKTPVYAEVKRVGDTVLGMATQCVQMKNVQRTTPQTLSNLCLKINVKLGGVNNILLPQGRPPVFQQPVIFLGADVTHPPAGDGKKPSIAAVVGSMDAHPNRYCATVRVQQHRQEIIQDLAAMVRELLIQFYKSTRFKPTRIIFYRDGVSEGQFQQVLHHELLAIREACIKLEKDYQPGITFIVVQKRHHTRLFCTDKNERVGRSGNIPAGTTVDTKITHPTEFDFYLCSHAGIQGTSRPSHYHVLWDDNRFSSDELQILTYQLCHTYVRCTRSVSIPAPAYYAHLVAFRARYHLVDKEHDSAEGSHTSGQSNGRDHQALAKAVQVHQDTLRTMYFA

FH-AGO2 (Flag-HA-tagged wild type AGO2 expressed in MCF-7 cells), sequence (Q9UKV8 whole entry): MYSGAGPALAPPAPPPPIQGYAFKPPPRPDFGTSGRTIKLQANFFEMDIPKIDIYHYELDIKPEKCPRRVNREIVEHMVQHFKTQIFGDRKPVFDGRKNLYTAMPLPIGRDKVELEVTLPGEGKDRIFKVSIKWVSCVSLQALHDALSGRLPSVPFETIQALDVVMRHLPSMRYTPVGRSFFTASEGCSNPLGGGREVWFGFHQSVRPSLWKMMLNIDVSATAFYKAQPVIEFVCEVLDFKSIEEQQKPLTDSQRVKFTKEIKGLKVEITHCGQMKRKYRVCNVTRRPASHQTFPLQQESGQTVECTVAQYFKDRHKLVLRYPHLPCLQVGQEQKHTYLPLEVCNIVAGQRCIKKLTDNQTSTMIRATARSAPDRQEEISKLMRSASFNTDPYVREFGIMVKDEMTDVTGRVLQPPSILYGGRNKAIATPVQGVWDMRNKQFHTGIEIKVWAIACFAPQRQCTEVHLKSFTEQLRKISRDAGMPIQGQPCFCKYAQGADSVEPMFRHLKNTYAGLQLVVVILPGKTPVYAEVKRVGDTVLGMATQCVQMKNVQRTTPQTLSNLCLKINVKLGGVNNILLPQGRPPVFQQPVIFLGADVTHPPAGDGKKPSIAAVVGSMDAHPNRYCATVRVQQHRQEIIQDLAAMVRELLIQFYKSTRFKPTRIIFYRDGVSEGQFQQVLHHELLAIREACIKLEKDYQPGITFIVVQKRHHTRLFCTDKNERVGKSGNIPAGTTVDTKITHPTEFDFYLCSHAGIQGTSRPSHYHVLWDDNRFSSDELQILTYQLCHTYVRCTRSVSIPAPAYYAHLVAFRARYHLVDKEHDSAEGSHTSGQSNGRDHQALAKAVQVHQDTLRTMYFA

Substance | K726me1 level on FH-AGO2 in in vitro demethylation assay (immunoblot) [1] | K726me1 level in in vitro demethylation assay (immunoblot) [2]
FH-LSD1-K661A (catalytically compromised LSD1) | FH-LSD1 but not FH-LSD1-K661A decreased K726mel level on FH-AGO2 | 
FH-LSD1 (Flag-HA-tagged wild type LSD1 expressed in MCF-7 cells) | FH-LSD1 but not FH-LSD1-K661A decreased K726mel level on FH-AGO2 | had no observable effects on FH-AGO2-K726R
